Results reported in doi:10.1101/415992.

Molecular target: Mps1-1 kinetochores (budding yeast) (UniProt P40568)
Assay: optical trap force-clamp flow assay

Sequence of UniProt P40568 (P40568 whole entry, looked up): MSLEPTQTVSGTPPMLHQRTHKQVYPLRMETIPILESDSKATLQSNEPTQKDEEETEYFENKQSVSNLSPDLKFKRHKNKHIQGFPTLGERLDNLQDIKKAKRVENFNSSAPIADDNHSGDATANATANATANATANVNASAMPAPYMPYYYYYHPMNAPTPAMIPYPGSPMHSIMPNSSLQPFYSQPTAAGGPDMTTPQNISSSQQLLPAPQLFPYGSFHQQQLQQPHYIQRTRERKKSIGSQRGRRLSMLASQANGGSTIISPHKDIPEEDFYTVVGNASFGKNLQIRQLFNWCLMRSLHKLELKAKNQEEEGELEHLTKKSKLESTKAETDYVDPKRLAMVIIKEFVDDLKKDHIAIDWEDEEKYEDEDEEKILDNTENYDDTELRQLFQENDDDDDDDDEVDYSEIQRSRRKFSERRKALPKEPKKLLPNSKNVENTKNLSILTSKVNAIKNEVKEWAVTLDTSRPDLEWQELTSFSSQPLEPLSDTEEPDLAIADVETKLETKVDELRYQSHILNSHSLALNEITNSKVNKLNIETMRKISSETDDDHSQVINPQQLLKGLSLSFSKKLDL

- detachment rate (with 0.5 μM AurB*, 1.5 pN): 28.9 hr^-1
- detachment rate (with 0.5 μM AurB*, 5 pN): 7 hr^-1
- detachment rate (with 0.5 μM AurB*, ~1 pN): 4.6 hr^-1
- detachment rate (with 0.5 μM AurB*-KD, 1.5 pN): 10.4 hr^-1
- detachment rate (with 0.5 μM AurB*-KD, 5 pN): 7 hr^-1
- detachment rate (with 5 μM AurB*, ~1 pN): 7.2 hr^-1
Substance: dynamic microtubules (assembling and shortening tips of single, coverslip-anchored microtubules) (from UniProt Q6B856 1-445) (complex)
